Assays:
[1] = target: T1, acyl CoA:cholesterol acyl transferase (Mus musculus, UniProt Q61263); test: Incorporation of [14C]oleate into cholesteryl ester in cholesterol-laden macrophages (ACAT activity); assay type: cell-based, murine; details: lipoproteins or protein liposomes; tissue culture
T1 construct: host or cells: J774 mouse macrophages, cholesterol-loaded
T1 sequence (Q61263 1-540): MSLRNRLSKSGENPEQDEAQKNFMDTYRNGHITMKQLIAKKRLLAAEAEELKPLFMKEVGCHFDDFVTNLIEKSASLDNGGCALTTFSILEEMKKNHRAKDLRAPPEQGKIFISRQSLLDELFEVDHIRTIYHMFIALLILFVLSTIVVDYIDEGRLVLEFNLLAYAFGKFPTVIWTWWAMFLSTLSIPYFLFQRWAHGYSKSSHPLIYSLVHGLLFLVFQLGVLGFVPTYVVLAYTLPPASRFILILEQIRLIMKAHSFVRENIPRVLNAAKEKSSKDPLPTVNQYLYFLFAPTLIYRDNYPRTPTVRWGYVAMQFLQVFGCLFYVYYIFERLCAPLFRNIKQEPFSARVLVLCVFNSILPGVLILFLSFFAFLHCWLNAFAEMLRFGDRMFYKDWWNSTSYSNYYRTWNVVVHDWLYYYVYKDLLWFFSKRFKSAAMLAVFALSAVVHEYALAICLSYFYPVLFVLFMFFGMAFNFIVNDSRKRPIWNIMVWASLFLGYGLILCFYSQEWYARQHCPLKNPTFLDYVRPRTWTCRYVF
Protocol: The incorporation of [^14C]oleate into cholesteryl ester was used as a measure of acyl CoA:cholesterol acyl transferase activity to identify compositions inhibiting the enzyme activity. The relative acyl CoA:cholesterol acyl transferase activity was determined in cholesterol-laden murine cells that had been cultured in medium in the absence of liposomes or in the presence of protein-free liposomes or liposomes containing 0.5 μM synthetic peptides corresponding to amino acids 1-20, 21-50, 51-80 and 74-103 of murine SAA2.1.
To load the cells with cholesterol, nearly confluent mono-layers were washed 3 times with phosphate buffered saline containing 2 mg/mL fatty acid-free bovine serum albumin (PBS-BSA) and incubated for 5 hours in DMEM supplemented with 5% lipoprotein-depleted serum (LPDS) (d>1.25 g/mL) and 175 μg of red blood cell membrane cholesterol. For the purpose of pool equilibration of added cholesterol, cell cultures were rinsed twice with PBS-BSA and incubated overnight in DMEM containing 5% LPDS. The relative activity of acyl CoA:cholesterol acyl transferase was determined in cholesterol-laden cells that had been cultured in medium containing no liposomes, protein-free liposomes or liposomes containing 0.5:M synthetic peptides corresponding to amino acid residues 1-20 (SEQ ID NO:1), 21-50 (SEQ ID NO:2), 51-80 (SEQ ID NO:3) or 74-103 (SEQ ID NO:4) of murine SAA2.1, respectively. Following 3 hours incubation with the above media, [^14C]-oleate was added and the cells were incubated for another 3 hour period (Mendez et al. J. Clin. Invest. 1994 94:1698-1705; Oram et al. Arterioscler. Thromb. 1991 11:403-414). Cells were chilled on ice and washed twice with PBS-BSA and twice with PBS. After addition of [^3H]-cholesteryl oleate (6000 dpm/well) as an internal standard, the lipids were extracted from the labeled cells and analyzed by thin-layer chromatography as described by Mendez et al. (J. Clin. Invest. 1994 94:1698-1705) and Oram et al. (Arterioscler. Thromb. 1991 11:403-414). The radioactivity in appropriate spots was measured to determine the incorporation of radioactivity into cholesteryl esters as a measure of acyl CoA:cholesterol acyl transferase activity.

[2] = system: cholesterol ester hydrolase; test: Rate of hydrolysis of cholesteryl ester in cholesterol-laden J774 cells (cholesterol ester hydrolase activity); assay type: cell-based, murine; details: lipoproteins or protein liposomes; tissue culture
Protocol: Identification of the domain of SAA2.1 that is responsible for enhancing cholesterol ester hydrolase activity was performed in J774 cells preloaded with radio-labeled cholesteryl esters. These experiments were performed in the presence of Sandoz 58-035, an inhibitor of acyl CoA:cholesterol acyl transferase activity, to prevent re-esterification of liberated cholesterol and [^14C]oleate. Incubations proceeded for times ranging from 0 to 24 hours, following which the remaining quantities of [^14C]-labeled cholesteryl oleate in cells were measured to determine the rate of hydrolysis of cholesteryl ester. […] However, an equivalent amount of liposomes containing the synthetic peptide corresponding to amino acid residues 74-103 of murine SAA2.1 caused a 3-fold increase in cholesterol ester hydrolase activity in these cholesterol-laden murine cells. Newly confluent J774 cells were labeled with [^14C]-oleate during cholesterol loading with red blood cell membranes as described above. Cells were then incubated for up to 24 hours with 2 mL of DMEM containing 5% LPDS and 50 μg/mL of either native HDL, SAA-HDL, liposomes containing 2 μmoles of apoA-1, SAA1.1 or 2.1, or liposomes containing 0.5:mol synthetic peptides corresponding to amino acid residues 1-20 (SEQ ID NO:1), 21-50 (SEQ ID NO:2), 51-80 (SEQ ID NO:3) and 74-103 (SEQ ID NO:4) of murine SAA2.1. To determine the rate of cholesteryl ester hydrolysis, 2 μg/mL of the acyl CoA:cholesterol acyl transferase inhibitor Sandoz 58-035 (propanimide, 3-(decyldimethylsilyl)-N-[2-(4-methylphenyl)-1-phenylethyl]-(9Cl) was added during incubation with lipoproteins or liposomes to prevent […] and free cholesterol. To examine whether or not the rate of cholesteryl ester hydrolysis involved the lysosomal cholesteryl ester hydrolase, the cells were cultured in the presence of 50 μg/mL of either native HDL and chloroquine or SAA-HDL and chloroquine (100:M). Chloroquine is an agent that neutralizes the lysosomal proton gradient. At various time points, cellular lipids were extracted and analyzed for cholesteryl ester radioactivity as described above.

J774 macrophages [3] = details: Tam et al. 2002; cited from earlier work
[4] = target: T1, acyl CoA:cholesterol acyl transferase; test: ACAT activity in macrophage post-nuclear homogenates; assay type: biochemical, murine; details: macrophage post-nuclear homogenates as enzyme source
Source text: The in vitro effects of acute phase-HDL (AP-HDL;HDL-SAA) on acyl CoA:cholesterol acyl transferase and cholesterol ester hydrolase activities and on cellular cholesterol export were studied by the inventors using purified enzymes, cell homogenates, and whole cells. […] In contrast, murine SAA1.1 and apoA-1 had no effect. […] Using macrophages preloaded with radio-labeled cholesterol and injected intravenously into either inflamed or un-inflamed mice, it was shown that the inflamed mice, which have high SAA2.1 levels, effluxed cholesterol more rapidly and to a greater extent (6-fold greater) than their un-inflamed counterparts.

J774 macrophages [5] = test: Cholesterol efflux from cholesterol-laden J774 macrophages to apolipoprotein liposomes with 8-bromo-cAMP or methyl-β-cyclodextrin; assay type: cell-based, mouse
Source text: The export process of cholesterol is coupled to the ATP binding cassette transporter (ABCA1) pathway. Lipid efflux to apolipoproteins has been shown previously to be stimulated by treatment of murine macrophages with cAMP analogues (Lin et al. 2002 Biochem Biophys Res. Commun. 290:663-669; Oram et al. 2000 J. Biol. Chem. 275:34508-34511). Also, the expression of ABCA1 is induced by cAMP treatment (Lin et al. 2002 Biochem Biophys Res. Commun. 290:663-669; Oram et al. 2000 J. Biol. Chem. 275:34508-34511). The inventors herein examined the effect of 8-bromo-cAMP (0.3 mM) on cholesterol efflux by liposomes containing various apolipoproteins when incubated with cholesterol-laden J774 macrophages. Such cells were pre-labeled with [^3H]-cholesterol in the presence of Sandoz 58-035, an ACAT inhibitor, to ensure that all of the radiolabeled cholesterol released from the cells was derived from the un-esterified cholesterol pool, and the cells were treated for 12 hours with 8-bromo-cAMP. This was followed by incubation with various acceptors. The fractional release of cellular labeled cholesterol was determined as a function of time.
To investigate whether an apolipoprotein free cholesterol acceptor such as cyclodextrin has the ability to catalyze the removal of cholesterol from macrophages, cholesterol-loaded and labeled J774 cells were incubated with liposomes and methyl-β-cyclodextrin (0.1 mM) (CD).
To examine whether cholesterol export from J774 cells to medium containing liposomes containing 2 μM murine apoA-1, SAA1.1 or SAA2.1 is a cAMP-dependent process, the radio-labeled cholesterol-laden cells were incubated overnight with 8-Br-cAMP (0.3 mM), prior to the addition of liposomes containing 2 μM murine apoA-1, SAA1.1 or SAA2.1 to the culture medium. Cholesterol efflux to the medium was then determined at the indicated time points as described above. Efflux of radioactive label to the medium was calculated as a percentage of total counts in each well.

B1: GFFSFIGEAFQGAGDMWRAYTDMKEAGWKDGDKYFHARGNYDAAQRGPGGVWAAEKISD ARESFQEFFGRGHEDTMADQEANRHGRSGKDPNYYRPPGLPAKY (protein, listed as Mus musculis)
chain: GFFSFIGEAFQGAGDMWRAYTDMKEAGWKDGDKYFHARGNYDAAQRGPGGVWAAEKISDARESFQEFFGRGHEDTMADQEANRHGRSGKDPNYYRPPGLPAKY
notes: full length murine serum amyloid A isoform 1.1
acyl CoA:cholesterol acyl transferase activity in intact cholesterol-laden macrophages [1]: no effect on enzyme activities
cholesterol ester hydrolase activity in intact cholesterol-laden macrophages [2]: no effect on enzyme activities
promotion of cholesterol efflux from cholesterol-laden macrophages compared to protein-free liposomes (J774 macrophages [3]): not any more effective than protein-free liposomes
acyl CoA:cholesterol acyl transferase activity [4]: had no effect
stimulation of cholesterol efflux to liposomes with or without cAMP pre-treatment (J774 macrophages [5]; 8-bromo-cAMP 0.3 mM): No stimulation of efflux
increase in the initial rate of cholesterol efflux with CD treatment (J774 macrophages [5]; methyl-β-cyclodextrin 0.1 mM plus liposomes): not

Reference: patent publication US8703698B2, “Compositions and methods for treating atherosclerosis” (The University of Chicago, priority 2003, dated 2014)
